In patent publication US20220315655A1:

Target: recombinant cynomolgus monkey PD-L1 soluble protein (cynomolgus monkey) (UniProt G7PSE7)
Assay: sandwich ELISA, antibody captured on anti-human Fc, biotinylated rec. cynomolgus PD-L1 titrated (x axis), fluorescence

Chain of Avelumab (antibody) (VH): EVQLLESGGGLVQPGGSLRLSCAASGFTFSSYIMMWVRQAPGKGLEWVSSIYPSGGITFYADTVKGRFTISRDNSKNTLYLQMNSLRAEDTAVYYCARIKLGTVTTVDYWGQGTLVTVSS
Chain of Avelumab (antibody) (VL): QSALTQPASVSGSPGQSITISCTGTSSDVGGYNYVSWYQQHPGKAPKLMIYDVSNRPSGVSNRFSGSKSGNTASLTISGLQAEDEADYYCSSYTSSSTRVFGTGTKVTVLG
Chain of recombinant cynomolgus monkey PD-L1 soluble protein (cynomolgus monkey) (G7PSE7 entry or part of it): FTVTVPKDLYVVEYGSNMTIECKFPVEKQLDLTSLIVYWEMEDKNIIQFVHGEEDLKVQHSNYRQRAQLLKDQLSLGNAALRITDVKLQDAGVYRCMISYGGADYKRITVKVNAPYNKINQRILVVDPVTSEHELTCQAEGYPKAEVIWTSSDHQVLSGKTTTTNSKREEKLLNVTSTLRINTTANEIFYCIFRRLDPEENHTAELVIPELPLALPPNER

EC50 (read off the curve): 0.05 nM
Substance: Avelumab (antibody)
